Results published in US20250257130A1 (NONA BIOSCIENCES SUZHOU, published 2025).

Legend:
[1] = molecular target: T1, Human ROR1-ECD-his (Acro Biosystems RO1-H522y) (human, UniProt Q01973 30-406); assay: BLI in-tandem, row = 1st Ab; competitor (2nd Ab): PR005340
T1 construct: extracellular domain; bought protein; also called hROR1-ECD-his; hu-ROR1-ECD-his
Source text: (§1) To determine if anti-ROR1 antibodies bind to human ROR1 on different or approximate binding epitopes, the ForteBio Octet® RED96e platform was used to perform epitope competition experiments on the anti-ROR1 antibodies. Human ROR1 protein (Acrobiosystems, #RO1-H522y) was biotinylated and then captured onto SA biosensors (ForteBio, #18-5020) to reach loading level of 0.3-0.4 nm. The in-tandem competition assay format was applied and it contains two association steps. Firstly, the antigen-loaded biosensors bind to each antibody (a.k.a, First antibody, 1st Ab) with a saturating concentration of 200 nM for 180 seconds to reach equilibrium and then secondly bind to the competing antibodies (a.k.a, Second antibody, 2nd Ab) of 200 nM for 180 seconds. The second binding signals were recorded as the 100% signal of each antibody when the first antibodies were replaced by kinetics buffer. All the binding data were analyzed using ForteBio Data Analysis 11.0 software. The inhibition rate is calculated by the following formula: […]

[2] = molecular target: T1, Human ROR1-ECD-his (Acro Biosystems …); assay: BLI in-tandem, row = 1st Ab; competitor (2nd Ab): PR005338
Source text: as §1

T1 sequence (Q01973 30-406): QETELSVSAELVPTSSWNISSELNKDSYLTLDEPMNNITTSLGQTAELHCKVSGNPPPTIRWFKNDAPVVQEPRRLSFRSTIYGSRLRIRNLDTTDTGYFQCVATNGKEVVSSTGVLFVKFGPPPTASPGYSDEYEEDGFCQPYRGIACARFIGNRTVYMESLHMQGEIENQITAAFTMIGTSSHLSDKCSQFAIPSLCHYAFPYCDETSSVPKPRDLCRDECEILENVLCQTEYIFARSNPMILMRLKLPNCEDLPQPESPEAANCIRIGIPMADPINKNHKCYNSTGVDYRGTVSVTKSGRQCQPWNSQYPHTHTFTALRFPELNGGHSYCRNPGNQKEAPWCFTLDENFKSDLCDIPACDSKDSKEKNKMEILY

- Inhibition (%) [1]: -7.48%
- Inhibition (%) [2]: -7.76%
B1: PR000374 (antibody, human IgG1, kappa, V domains shown)
VH: EVQLVESGGGLVQPGRSLRLSCTASGSDINDYPITWVRQAPGQGLEWIGFINSGGSTWYASWVKGRFTISRDDSKSIAYLQMNSLKTEDTAVYYCARGYSTYYRDFNIWGQGTLVTVSS
VL: DIQMTQSPSSLSASVGDRVTINCQASQSIDSNLAWFQQKPGQPPKLLIYRASNLASGVPDRFSGSGSGTDFTLTISSLEAEDVATYYCLGGVGAVSYRTSFGGGTKVEIKR
notes: positive control; also called Bench marker 1
